# According to PMC9473479:
# “And” between values parts separate entries of the source, which are not always exact repeats. Equal values may be shown once.
# Legend:
# [1] = molecular target: S40-H StrepII-tagged at its C-terminus (murine SPD scaffold carrying EsxH in the collagen-like region, CRD replaced by the murine CD40L 115-260 ectodomain) (Mus musculus | Mycobacterium tuberculosis | murine) (UniProt P27548); experiment: non-reducing SDS-PAGE and Western blot
# [2] = molecular target: S40-H StrepII-tagged at its C-terminus (murine SPD scaffold carrying EsxH in the collagen-like region, CRD replaced by the murine CD40L 115-260 ectodomain) (Mus musculus | Mycobacterium tuberculosis | murine) (UniProt P27548); experiment: SEC; 50x-concentrated supernatant of LV::S40-H-StrepII-transduced HEK293T cells on Superose 6 HR 10/30, 50 mM phosphate buffer pH 7.5, 150 mM NaCl; calibrated with standard proteins; fractions analysed by Western blot in reducing conditions
substance,measurement,setting,value
"S40-H StrepII-tagged at its C-terminus (murine SPD scaffold carrying EsxH in the collagen-like region, CRD replaced by the murine CD40L 115-260 ectodomain) (from UniProt P27548 115-260)",stoichiometry N,[1],2 and 4 and 3
same,stoichiometry N,[2],2 and 3 and 4
